The test has as its target lamin A/C (human (endogenous in primary myoblasts)) (UniProt P02545). Nature of the test: proximity ligation; in situ PLA (Duolink) on methanol-fixed human myoblasts after uniaxial cyclic stretching (10% strain, 1 Hz, 4 h); anti-lamin A/C with anti-desmin or anti-plectin 1; 100 nuclei counted per replicate.
Sequence of UniProt P02545 (P02545 1-646): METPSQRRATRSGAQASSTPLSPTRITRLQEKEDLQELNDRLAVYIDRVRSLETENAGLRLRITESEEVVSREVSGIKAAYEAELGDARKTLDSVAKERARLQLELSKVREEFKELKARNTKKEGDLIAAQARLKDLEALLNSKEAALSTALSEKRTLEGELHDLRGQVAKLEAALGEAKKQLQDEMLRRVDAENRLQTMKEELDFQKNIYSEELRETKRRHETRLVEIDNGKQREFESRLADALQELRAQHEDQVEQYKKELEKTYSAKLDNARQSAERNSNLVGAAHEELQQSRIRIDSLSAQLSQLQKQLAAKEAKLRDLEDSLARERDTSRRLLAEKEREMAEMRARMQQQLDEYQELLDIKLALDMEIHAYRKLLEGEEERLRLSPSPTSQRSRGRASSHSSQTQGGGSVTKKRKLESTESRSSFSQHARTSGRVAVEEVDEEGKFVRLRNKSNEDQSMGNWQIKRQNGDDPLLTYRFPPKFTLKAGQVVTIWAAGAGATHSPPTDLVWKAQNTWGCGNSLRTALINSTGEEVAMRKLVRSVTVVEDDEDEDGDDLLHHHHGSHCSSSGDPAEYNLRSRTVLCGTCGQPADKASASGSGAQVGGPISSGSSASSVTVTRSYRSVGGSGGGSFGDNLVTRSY

As for plectin 1 (natural protein), the increase of PLA signal relative to non-stimulated cells was found to be 64%.
